Data: publication PMC5515355, “Frizzled 7 and PIP2 binding by syntenin PDZ2 domain supports Frizzled 7 trafficking and signalling” (Nature Communications, 2016)
Changes are numbered by the printed parent chain. Values belong to the molecule of their own block, whether it stands above or below them. Ends that are not written are not given here. carboxifluorescein = carboxyfluorescein

Assays:
[1] = target: syntenin PDZ1–PDZ2 tandem (amino acids 107–275), wild type (human) (UniProt O00560); assay: ITC; VP-ITC; Frizzled 7 peptide (1.0 mM) injected (32 x 8 μl) into PDZ1–PDZ2 tandem (30–60 μM); 10 mM Mes pH 7.0, 5 mM β-mercaptoethanol; binary sequential binding model
[2] = target: T1, syntenin PDZ1–PDZ2 tandem (amino acids 107–275), wild type (human, UniProt O00560 107-275); assay: SPR; as a3, but the syntenin protein pre-incubated with 0.5 mM Ins(1,4,5)P3 (IP3, PIP2 head group) before perfusion; apparent KD; settings: both partners purified
T1 construct: syntenin, PDZ1–PDZ2 tandem, amino acids 107–275; also called PDZ tandem of syntenin; PDZ1–PDZ2 tandem wild-type; source: ER2566 cells (pETM-11 vector), purified; not shown: His6, N-terminal, kept
T1 sequence (looked up): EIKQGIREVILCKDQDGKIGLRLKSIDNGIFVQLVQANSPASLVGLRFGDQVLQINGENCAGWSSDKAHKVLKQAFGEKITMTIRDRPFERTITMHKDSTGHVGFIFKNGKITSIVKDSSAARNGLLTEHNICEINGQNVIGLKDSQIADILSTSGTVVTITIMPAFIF

[3] = target: T2, syntenin PDZ2 domain (residues 196–275), wild type (human, UniProt O00560 196-275); assay: as above; settings: both partners purified
T2 construct: syntenin, PDZ2 domain, amino acids 196–275; also called PDZ2 wild type; source: ER2566 cells (pETM-11 vector), purified recombinant; not shown: His6, N-terminal, kept
T2 sequence (looked up): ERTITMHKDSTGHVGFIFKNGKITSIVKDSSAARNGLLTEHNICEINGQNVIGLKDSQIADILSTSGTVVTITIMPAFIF

[4] = target: T3, syntenin PDZ2 domain (196–275) N215D (human, UniProt O00560 196-275, N215D); assay: as above; settings: both partners purified
T3 construct: syntenin, PDZ2 domain, amino acids 196–275, N215D; also called PDZ2 single mutant N215D; source: ER2566 cells (pETM-11 vector), purified; not shown: His6, N-terminal, kept
T3 sequence (looked up): T2 sequence (looked up) with N20D

[5] = target: T4, syntenin PDZ2 domain (196–275) K214A (human, UniProt O00560 196-275, K214A); assay: as above; settings: both partners purified
T4 construct: syntenin, PDZ2 domain, amino acids 196–275, K214A; also called PDZ2 single mutant K214A; source: ER2566 cells (pETM-11 vector), purified; not shown: His6, N-terminal, kept
T4 sequence (looked up): T2 sequence (looked up) with K19A

[6] = target: T1, syntenin PDZ1–PDZ2 tandem (amino acids …); assay: SPR; BIAcore T200, 25 °C; biotinylated Frizzled 7 19mer peptides (100 RU) immobilised on a streptavidin chip, His-tagged syntenin proteins as analytes; 10 mM HEPES pH 7.4, 150 mM NaCl, 0.005% Tween 20; equilibrium titration, apparent KD; without IP3; settings: both partners purified
[7] = target: T5, syntenin PDZ1–PDZ2 tandem (107–275) mutant K214A/K250A (human, UniProt O00560 107-275, K214A | K250A); assay: as above; settings: both partners purified
T5 construct: syntenin, PDZ1–PDZ2 tandem, amino acids 107–275, K214A and K250A; PDB 4Z33 holds the wild-type parent of the same limits; also called PDZ1–PDZ2 tandem mutant K214A/K250A; K214A/K250A mutant tandem; source: ER2566 cells (pETM-11 vector), purified; not shown: His6, N-terminal, kept
T5 sequence (looked up): T1 sequence (looked up) with K108A, K144A

[8] = target: T2, syntenin PDZ2 domain (residues …); assay: as above; settings: both partners purified
[9] = target: T6, syntenin PDZ2 domain (196–275) K250A (human, UniProt O00560 196-275, K250A); assay: as above; settings: both partners purified
T6 construct: syntenin, PDZ2 domain, amino acids 196–275, K250A; also called PDZ2 single mutant K250A; source: ER2566 cells (pETM-11 vector), purified; not shown: His6, N-terminal, kept
T6 sequence (looked up): T2 sequence (looked up) with K55A

[10] = target: T7, syntenin PDZ2 domain (196–275) K214A/K250A (human, UniProt O00560 196-275, K214A | K250A); assay: as above; settings: both partners purified
T7 construct: syntenin, PDZ2 domain, amino acids 196–275, K214A and K250A; also called PDZ2 double mutant; PDZ2 mutant K214A/K250A; source: ER2566 cells (pETM-11 vector), purified; not shown: His6, N-terminal, kept
T7 sequence (looked up): T2 sequence (looked up) with K19A, K55A

[11] = target: T1, syntenin PDZ1–PDZ2 tandem (amino acids …); assay: MST; as a7, in the presence of Ins(1,4,5)P3 head group (concentration not stated); fit of Hill's equation; settings: both partners purified
[12] = target: T2, syntenin PDZ2 domain (residues …); assay: SPR; competition: PDZ2 wild type (30 μM) incubated with 0–4 mM 6mer Frizzled 7 peptide (KGETAV), then perfused over the Frizzled 7 peptide immobilised on a BIAcore streptavidin chip; equilibrium responses; settings: both partners purified
[13] = target: T1, syntenin PDZ1–PDZ2 tandem (amino acids …); assay: crystal structure; PDZ tandem co-crystallised with C4-PIP2 and the Frizzled 7 sixmer, molar ratio protein:lipid:peptide 10:23:23; 2.45 Å; settings: both partners purified

binding result [8]: binds
B3: Frizzled 7 K-5A mutant 19mer, biotinylated (SWRRFYHRLSHSSAGETAV) (peptide)
peptide: SWRRFYHRLSHSSAGETAV
modifications: also: biotinylated, position not given here
notes: Frizzled 7, last 19 residues with the lysine at position -5 (lysine 569) replaced by alanine; Immobilised on a streptavidin sensor chip; also called Frizzled 7 K-5A 19mer; source: synthetic peptide, GenScript

binding result [12]: binds
binding result [13]: binds
B4: C-terminal hexapeptide of Frizzled 7 (KGETAV) (peptide)
peptide: KGETAV
notes: Frizzled 7, C-terminal six residues; K-5 is lysine 569; also called Fz7(6mer); 6mer Frizzled 7 peptide

Further lines, the molecule ahead of its results:

Molecule: 8mer C-terminal peptide from Frizzled 7 (from UniProt O75084 567-574)
KD of the first site (binary sequential binding model) [1]: 20.5 µM
KD of the second site (binary sequential binding model) [1]: 4.3 µM

B1: Frizzled 7 wild-type 19mer, biotinylated C-terminal peptide (SWRRFYHRLSHSSKGETAV) (peptide)
peptide: SWRRFYHRLSHSSKGETAV
modifications: also: biotinylated, position not given here
notes: Frizzled 7, last 19 residues, part of the cytoplasmic domain; K-5 is lysine 569; Immobilised on a streptavidin sensor chip; also called 19 amino acids C-terminal peptide from Frizzled 7; Frizzled 7 19mer; source: synthetic peptide, GenScript
Kd [2]: 2 µM
Kd [3]: 5 µM
binding result [4]: binds
binding result [5]: binds
Kd [6]: 8 µM
binding result [7]: binds
Kd [8]: 32 µM
binding result [9]: binds
binding result [10]: binds

B2: 6mer C-terminal peptide from Frizzled 7, N-terminally labelled with carboxifluorescein (peptide)
peptide: carboxifluorescein-KGETAV
notes: Frizzled 7, C-terminal six residues; also called Frizzled 7 peptide (microscale thermophoresis); source: synthetic peptide (chemically synthesized, JPT, Germany)
Kd [11]: 1.2 µM
